This is an account of results in PMC7190642.

Assay [1] concerns the target GST-MDM2-419–C-S429E (human) (UniProt Q00987).
Assay [2] addresses GST-cat MDM2-422–C (Felis catus (cat)) (UniProt Q7YRZ8). Nature of the assay: SPR; GST-tagged MDM2 variants captured on a CM-5 chip with coupled anti-GST antibody; serial dilution of UbcH5B–Ub as analyte; 25 °C; 25 mM Tris-HCl pH 7.6, 150 mM NaCl, 0.1 mg/ml BSA, 1 mM DTT, 0.005% Tween-20; Biacore T200; GST alone subtracted.
The target of assay [3] is GST-MDM2-350–C-S407D (human) (UniProt Q00987). The assay is described as above.
In assay [4] the target is GST-MDM2-350–C/His-MDMX-428–C heterodimer (UniProt Q00987). The description is as above.
Assay [5] deals with GST-MDM2-350–C-S429D (human) (UniProt Q00987). Described as above.
Assay [6] addresses GST-MDM2-419–C/His-MDMX-418–C heterodimer (UniProt Q00987). The assay is described as above.
Assay [7] deals with GST-MDM2-419–C (human) (UniProt Q00987). Described as above.
Assay [8] deals with GST-MDM2-350–C-6D (human) (UniProt Q00987). The assay is described as above.
Assay [9] deals with GST-MDM2-419–C-S429E (human) (UniProt Q00987). Described as above.
Assay [10] deals with GST-MDM2-350–C-S425D (human) (UniProt Q00987). Described as above.
Assay [11] has as its target GST-MDM2-350–C-T419D (human) (UniProt Q00987). The assay is described as above.
Assay [12] has as its target GST-MDM2-350–C-S386D (human) (UniProt Q00987). The assay is described as above.
Assay [13] addresses GST-MDM2-350–C-S395D (human) (UniProt Q00987). The assay is described as above.
The target in assay [14] is GST-MDM2-419–C-pS429 (human) (UniProt Q00987). The assay is described as above.
For assay [15], the target named is GST-cat MDM2-422–C-S429E (Felis catus (cat)) (UniProt Q7YRZ8). The assay is described as above.
The target in assay [16] is GST-MDM2-419–C-S429E/His-MDMX-418–C heterodimer (UniProt Q00987). The description is as above.
Assay [17] addresses GST-MDM2-419–C-S429D (human) (UniProt Q00987). Described as above.
Assay [18] addresses GST-MDM2-350–C-6D/His-MDMX-428–C heterodimer (UniProt Q00987). The assay is described as above.

The Kd is the constant that tells how readily two partners part at equilibrium. The low end stands for tighter binding, the high end for weaker binding. The substance “UbcH5B S22R, C85K–Ub (stably conjugated E2–ubiquitin) (from UniProt P62837 1-147; P0CG47 1-76) (complex)” registered a rate of autoubiquitination of the MDM2 homodimer over time, S429E against WT in assay [1] of 1.6 fold. Also, the Kd in assay [2] stood at 16.8 µM; in assay [3], 13.7 µM; in [4], 36.7 µM; in [5] it was 7.8 µM; in [6], 23.4 µM; in [7] it was 14 µM. Also, the Kd came out at 6.7 µM in [8]; 6.4 µM in [9]; 13.4 µM in [10]; 13 µM in [11]; 13.7 µM in assay [12]; 13.7 µM in assay [13]. Moreover, the Kd in [14] is 5.1 µM; in [15], 6.8 µM; in assay [16] it was 17.8 µM; in [17], 7.1 µM; in assay [18], 29.2 µM.
